Measured values published in publication PMC9959367, “Identification and Characterization of p300-Mediated Lysine Residues in Cardiac SERCA2a” (International Journal of Molecular Sciences, 2023).

Biological target: T1, phospholamban (PLN) (UniProt P26678 1-52)
T1 construct: phospholamban, overexpressed
T1 sequence (looked up): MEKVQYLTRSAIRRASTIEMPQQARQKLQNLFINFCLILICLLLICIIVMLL
Test: co-IP; IP experiments in overexpression systems, told in the discussion only, data not shown; which partner was precipitated is not told
Conditions: partners not purified

fold change of affinity against wild-type SERCA2a: ~2.5 fold
B1: acetylation-mimic mutant of K328 SERCA2a (K328Q) (natural protein, UniProt P16615-2 1-997, looked up)
chain: MENAHTKTVEEVLGHFGVNESTGLSLEQVKKLKERWGSNELPAEEGKTLLELVIEQFEDLLVRILLLAACISFVLAWFEEGEETITAFVEPFVILLILVANAIVGVWQERNAENAIEALKEYEPEMGKVYRQDRKSVQRIKAKDIVPGDIVEIAVGDKVPADIRLTSIKSTTLRVDQSILTGESVSVIKHTDPVPDPRAVNQDKKNMLFSGTNIAAGKAMGVVVATGVNTEIGKIRDEMVATEQERTPLQQKLDEFGEQLSKVISLICIAVWIINIGHFNDPVHGGSWIRGAIYYFKIAVALAVAAIPEGLPAVITTCLALGTRRMAQKNAIVRSLPSVETLGCTSVICSDKTGTLTTNQMSVCRMFILDRVEGDTCSLNEFTITGSTYAPIGEVHKDDKPVNCHQYDGLVELATICALCNDSALDYNEAKGVYEKVGEATETALTCLVEKMNVFDTELKGLSKIERANACNSVIKQLMKKEFTLEFSRDRKSMSVYCTPNKPSRTSMSKMFVKGAPEGVIDRCTHIRVGSTKVPMTSGVKQKIMSVIREWGSGSDTLRCLALATHDNPLRREEMHLEDSANFIKYETNLTFVGCVGMLDPPRIEVASSVKLCRQAGIRVIMITGDNKGTAVAICRRIGIFGQDEDVTSKAFTGREFDELNPSAQRDACLNARCFARVEPSHKSKIVEFLQSFDEITAMTGDGVNDAPALKKAEIGIAMGSGTAVAKTASEMVLADDNFSTIVAAVEEGRAIYNNMKQFIRYLISSNVGEVVCIFLTAALGFPEALIPVQLLWVNLVTDGLPATALGFNPPDLDIMNKPPRNPKEPLISGWLFFRYLAIGCYVGAATVGAAAWWFIAADGGPRVSFYQLSHFLQCKEDNPDFEGVDCAIFESPYPMTMALSVLVTIEMCNALNSLSENQSLLRMPPWENIWLVGSICLSMSLHFLILYVEPLPLIFQITPLNVTQWLMVLKISLPVILMDETLKFVARNYLEPAILE
notes: SERCA2a with lysine 328 exchanged for glutamine to mimic acetylation; The mutants were expressed from plasmids in HEK293 cells for the ATPase assays; also called K328Q SERCA2a
